One series concerns the target T1, MrkH (Klebsiella pneumoniae, UniProt G3FT00).
T1 construct: full-length MrkH, YcgR-N plus PilZ domains; monomer; recombinant
In words: ITC. It counts as binding.

The target of the next series is T2, MrkH^105-end (Klebsiella pneumoniae, UniProt G3FT00).
T2 construct: PilZ domain with interdomain linker, residues 105-end
In words: ITC. It counts as binding. The text has this:
ITC on MrkH^105-end | MrkH^105-end also binds to c-di-GMP efficiently

In series [1] the target is T3, MrkH (tag removed) (Klebsiella pneumoniae) (UniProt G3FT00).
T3 sequence: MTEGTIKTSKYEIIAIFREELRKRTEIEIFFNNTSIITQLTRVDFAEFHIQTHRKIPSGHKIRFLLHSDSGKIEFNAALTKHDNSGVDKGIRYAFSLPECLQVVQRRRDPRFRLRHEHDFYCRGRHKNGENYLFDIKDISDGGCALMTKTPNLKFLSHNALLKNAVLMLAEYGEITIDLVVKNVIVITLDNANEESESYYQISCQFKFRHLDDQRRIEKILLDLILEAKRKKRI
In words: fluorescence polarization. The conditions noted are these: EMSA: 50 mM Tris pH 8.0, 100 mM NaCl, 5 mM MgCl2, 20 ul, 100 min on ice; FP: 10 nM FAM-DNA, 25 C, buffer not fully given. Fig. 2G Kd values (High, 10.3, High …). (Polarisation of emitted light reports the rotation of a fluorescent probe.)

For series [2], the target named is T4, MBP-MrkH-PilZ domain (Klebsiella pneumoniae) (UniProt G3FT00).
T4 sequence: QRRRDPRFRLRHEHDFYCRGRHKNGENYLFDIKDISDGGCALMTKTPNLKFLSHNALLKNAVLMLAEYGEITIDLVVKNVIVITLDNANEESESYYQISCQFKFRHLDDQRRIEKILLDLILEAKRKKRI
In words: EMSA. The conditions noted are these: EMSA: 50 mM Tris pH 8.0, 100 mM NaCl, 5 mM MgCl2, 20 ul, 100 min on ice; FP: 10 nM FAM-DNA, 25 C, buffer not fully given. Fig. 2G Kd values (High, 10.3, High …). In general terms: Mobility shift assays separate free from complexed probe on a gel.

Series [3] addresses T5, MBP-MrkH (Klebsiella pneumoniae) (UniProt G3FT00).
T5 sequence: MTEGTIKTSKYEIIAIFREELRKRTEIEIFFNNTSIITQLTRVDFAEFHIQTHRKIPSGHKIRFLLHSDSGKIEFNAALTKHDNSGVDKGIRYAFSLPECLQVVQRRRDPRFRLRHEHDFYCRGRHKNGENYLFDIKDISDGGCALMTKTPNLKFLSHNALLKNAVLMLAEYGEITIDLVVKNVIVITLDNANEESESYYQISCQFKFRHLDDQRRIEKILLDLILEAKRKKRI
In words: EMSA. The following applies: EMSA: 50 mM Tris pH 8.0, 100 mM NaCl, 5 mM MgCl2, 20 ul, 100 min on ice; FP: 10 nM FAM-DNA, 25 C, buffer not fully given. Fig. 2G Kd values (High, 10.3, High …).

The target of series [4] is T6, MrkH (tag removed) (Klebsiella pneumoniae, UniProt G3FT00 1-234). In words: fluorescence polarization; EMSA: 50 mM Tris pH 8.0, 100 mM NaCl, 5 mM MgCl2, 20 ul, 100 min on ice; FP: 10 nM FAM-DNA, 25 C, buffer not fully given. Fig. 2G Kd values (High, 10.3, High, 7.5, 24.3, 10.6, 12.7, High) cannot be assigned to mutants. PilZ mutants of Fig. S3B (all lose mrkA binding in EMSA) are not individually named in the material. The following applies: protein: recombinant; tags: none (tag removed for FP); label: 5'-FAM; blunt.

A further series has as its target MrkH K207A (Klebsiella pneumoniae, UniProt G3FT00 1-234, K207A). In words: fluorescence polarization; little effect of mutation; EMSA: 50 mM Tris pH 8.0, 100 mM NaCl, 5 mM MgCl2, 20 ul, 100 min on ice; FP: 10 nM FAM-DNA, 25 C, buffer not fully given. Fig. 2G Kd values (High, 10.3, High, 7.5, 24.3, 10.6, 12.7, High) cannot be assigned to mutants. PilZ mutants of Fig. S3B (all lose mrkA binding in EMSA) are not individually named in the material. The following applies: protein: recombinant; tags: none; label: 5'-FAM; blunt.

In the next series the target is MrkH K163A (Klebsiella pneumoniae, UniProt G3FT00 1-234, K163A). Described as above. The conditions noted are these: protein: recombinant; tags: none; label: 5'-FAM; blunt.
The target of a further series is MrkH K154A (Klebsiella pneumoniae, UniProt G3FT00 1-234, K154A). The description is as above. The following applies: protein: recombinant; tags: none; label: 5'-FAM; blunt.
Another series deals with MrkH K89A (Klebsiella pneumoniae, UniProt G3FT00 1-234, K89A). The description is as above. The conditions noted are these: protein: recombinant; tags: none; label: 5'-FAM; blunt.
The target of series [5] is T6, MrkH (tag removed). In words: fluorescence polarization; no c-di-GMP; EMSA: 50 mM Tris pH 8.0, 100 mM NaCl, 5 mM MgCl2, 20 ul, 100 min on ice; FP: 10 nM FAM-DNA, 25 C, buffer not fully given. Fig. 2G Kd values (High, 10.3, High, 7.5, 24.3, 10.6, 12.7, High) cannot be assigned to mutants. PilZ mutants of Fig. S3B (all lose mrkA binding in EMSA) are not individually named in the material. The following applies: protein: recombinant; tags: none (tag removed for FP); label: 5'-FAM; blunt.

Five molecules from article PMC5055493, “The PilZ domain of MrkH represents a novel DNA binding motif” (Protein & Cell, 2016) can be followed below.

The term Kd denotes the equilibrium constant for the complex coming apart.

Regarding `Nc1nc2c(ncn2[C@@H]2O[C@@H]3CO[P@](=O)(O)O[C@H]4[C@@H](O)[C@H](n5cnc6c(=O)[nH]c(N)nc65)O[C@@H]4CO[P@](=O)(O)O[C@H]3[C@H]2O)c(=O)[nH]1` [c-di-GMP], the Kd is approximately 0.24 µM on MrkH and 0.45 ± 0.1 µM at MrkH^105-end.
The molecule “GCTGCGCTGTAAACAACCACCCTCGCGTTTTCATCTATCAATGGCTGTTTATTAATAGTCGATGGTTATCTGTTATATAACTTAATGAAACGTGAACAAATGTATATTTGTCGGCGAATAAATAGCATTCTTTGACGCCGATAGCACCAGCGAACTTATATTTTTAGGTTCGTTACCTGACGCCTTAAATATTGCGGCTCCCGGTCAGTCGAAGATTCTATTAGCAGTGGCATAAATCAGCATCGCCTGATGTTTCTGGTTCTATGCGAATTCACAGTGTGCT (double strand) [PmrkA -117 to +166 (FAM)]” came in with a Kd in series [1] of 3.07 µM.
With “ACTTAAGTTTTTATCCTTCGACCGGTCTCCAGCTTGGAGGCCGTTGTCGTTTTTGTCATGACCAAAATTCGAAACTCTTGATTACAGGAAATACAATATCAAATTCCAAGTTTATACATATCAATCTGGCTGCAAAGATAGTCAATAACATCAAACGCTCATAAAAACATCTGATTAACCCAATCAGAATGTTGCTATTGCTATAAGAAAAATCAAACGCCTCACGACAACTATTTACAAGGGATGCAT (double strand) [mrkHI promoter 250 bp]”, the binding entry in series [2] and in series [3] was “binds” throughout.

B1: 80 bp random sequence (FAM) (dsDNA)
DNA 1: ATAAATAGCATTCTTTGACGCCGATAGCACCAGCGAACTTATATTTTTAGGTTCGTTACCTGACGCCTTAAATATTGCGG
DNA 2: CCGCAATATTTAAGGCGTCAGGTAACGAACCTAAAAATATAAGTTCGCTGGTGCTATCGGCGTCAAAGAATGCTATTTAT
Consider B1, for which the Kd with MrkH (tag removed) [4] turned out to be 7.45 ± 2.81 µM.

B2: PmrkA -117 to -37 (FAM) (dsDNA)
DNA 1: GCTGCGCTGTAAACAACCACCCTCGCGTTTTCATCTATCAATGGCTGTTTATTAATAGTCGATGGTTATCTGTTATATAA
DNA 2: TTATATAACAGATAACCATCGACTATTAATAAACAGCCATTGATAGATGAAAACGCGAGGGTGGTTGTTTACAGCGCAGC
B2: the binding result in the series with MrkH K207A, with MrkH K163A, in the series with MrkH K154A and with MrkH K89A was “binds” each time. The Kd with MrkH (tag removed) [5] is 8.24 ± 2.23 µM.
